Data published in patent publication US20240391992A1 (Eli Lilly, published 2024).

T1: human XCR1 (human, UniProt P46094 1-333)
T1 sequence (looked up): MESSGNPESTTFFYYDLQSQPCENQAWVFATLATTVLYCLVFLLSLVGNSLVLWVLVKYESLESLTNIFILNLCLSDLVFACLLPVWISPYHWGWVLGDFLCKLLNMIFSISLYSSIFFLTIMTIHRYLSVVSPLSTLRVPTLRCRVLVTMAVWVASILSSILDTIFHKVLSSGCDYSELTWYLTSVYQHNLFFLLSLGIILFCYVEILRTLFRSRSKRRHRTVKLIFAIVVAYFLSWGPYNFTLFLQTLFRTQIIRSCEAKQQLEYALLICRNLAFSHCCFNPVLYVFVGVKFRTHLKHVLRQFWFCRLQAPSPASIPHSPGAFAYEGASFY


Key:
[1] = biological target: cynomolgus (cyno) XCL1 (cynomolgus); assay: flow cytometry, 293T cells with 1 ug/mL chemokine and 100 nM isotype control antibody, anti-human-Fc/PE
[2] = biological target: human XCL1 (human) (UniProt P47992); assay: as above
[3] = biological target: rat XCL1 (rat) (UniProt P51672); assay: as above
rat XCL1 (rat), sequence (P51672 22-114 limits assumed): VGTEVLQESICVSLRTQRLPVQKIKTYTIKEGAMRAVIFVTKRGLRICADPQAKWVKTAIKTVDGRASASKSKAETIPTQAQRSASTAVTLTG

[4] = biological target: mouse XCL1 (mouse) (UniProt P47993); assay: as above
mouse XCL1 (mouse), sequence (P47993 22-114 limits assumed): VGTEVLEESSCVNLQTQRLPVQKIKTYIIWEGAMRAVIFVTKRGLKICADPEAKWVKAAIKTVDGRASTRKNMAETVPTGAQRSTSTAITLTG

[5] = biological target: human XCL2 (human) (UniProt Q9UBD3); assay: as above
[6] = biological target: T1, human XCR1; assay: cell-based or functional assay

Row | Molecule | MFI [1] | MFI [2] | MFI [3] | MFI [4] | MFI [5] | GeoMean EC50 (nM), migration of XCR1-expressing Ba/F3 cells (Boyden chamber) [6]
1 | hIgG1-AAS isotype control antibody | 8.4 MFI | 7.6 MFI | 8.2 MFI | 8 MFI | 8.6 MFI | 
2 | human XCL1 (ligand) VGSEVSDKRTCVSLTTQRLPVSRIKTYTITEGSLRAVIFITKRGLKVCADPQATWVRDVVRSMDRKSNTRNNMIQTKPTGTQQSTNTAVTLTG |  |  |  |  |  | 858 nM
3 | Human XCL1 CC3 (ligand) VGSEVSDKRTCVSLTTQRLPCSRIKTYTITEGSLRAVIFITKRGLKVCADPQATWVRDCVRSMDRKSNTRNNMIQTKPTGTQQSTNTAVTLTG |  |  |  |  |  | 115 nM
